The series can be described thus: soluble on expression in E. coli; label from the status in PepcDB or PDB records.
As for “MDPTLYCVVAVDTKLGIGKNRCLPWPALRGDMRRFRQLTTDCAPGKQNMVVMGRRTWLSIPAGCRPLAGRINVVLSRTLETPPPGAHFLASSLDAALGLARSPELAQQIDKVWVIGGGDLYREALTGPWPVRLFLTRVLHDFACDVFLSHDSLAAYARVNPKPGEQERVFQERGIFYMFETYIKVTQSSDTALPDLERPRPATPPFSETS”, the “soluble on expression in E. coli” value is “soluble”. Regarding “MDPVIKLVAHAQEMSMTIPRRQACMVYGKLNVTLKKGDVQEERDKRVTDGYVHIPEDMPQGRFDFGFTREDADVNIGTGQSTYELALDTAARRITGQVLFEQDIIAPGFGDWRPLIDFSCGDLVGVRIWGKELVLPVTSITRETTGWRAHVGGQLINDRRKIISENRKILADIESERRER”, the “soluble on expression in E. coli” value is given as “not soluble”. Consider “MDREVEAQIGLNNVKILKSNILDSDEGKLFLKFGDEDLVIGELESLKAIQSTETILCPKPFGIIRRNGSYSLITSYIDFQLRKDWALAGSQLAKMHAKNGEQLAQNARRTRFVSVNSGMSDISKSEEGEQIGTENFGFHVTTCCGRLGQENDWTETWEEFFIRHRLKPQIDRLIETHNDRQLFELSEILYTKTAKLLKCRENVLPSLVHGDLWGGNWSMTTADGAPEPIIFDPSSSYSDPEFEFGIMKMFGGWTQDFENKYEKIIKTADGKNQRVLLYELYHNLNHWNHFGNSYRKKEKKLDKIYNNVYNNCYNNVRKNYCTKRITPKSGKLRNKAVRHPDFLANGIRRSPNLNFRSAIVICRSPFAAQPWYVAQLSKLEVMITDLIQM”, for which the “soluble on expression in E. coli” value is on record as “not soluble”.

“MDRIPFGIRQLDSIINGGAPAGSVVLLSGEAGAGSREFMHTSALINGLEQVDTELHDLYYGDRSPDAVAPDEVHYISFTTNESQLVSEMRLAMDDDVVDKGSRAVEFHDLSERYFHISPVPREWYASETASITDLRARHEREDLLGTLGMVLNEVAANNLVVIDSLSDLVSAMGEEIEWSDISSLVQGLQKAAHQWGCLLLLHINPETLSTVRHGQLVDASHGTMEFAWESGGSTRARTLVVQQFRGVLSQIEDEDIVQFETELGDAGFDISDVRKIRLEHHHHHH”: the “soluble on expression in E. coli” value is given as “not soluble”.

Regarding “MDRMKIEAVIFDWAGTTVDYGCFAPLEVFMEIFHKRGVAITAEEARKPMGLLKIDHVRALTEMPRIASEWNRVFRQLPTEADIQEMYEEFEEILFAILPRYASPINAVKEVIASLRERGIKIGSTTGYTREMMDIVAKEAALQGYKPDFLVTPDDVPAGRPYPWMCYKNAMELGVYPMNHMIKVGDTVSDMKEGRNAGMWTVGVILGSSELGLTEEEVENMDSVELREKIEVVRNRFVENGAHFTIETMQELESVMEHIEKQELIIS”, the “soluble on expression in E. coli” value is “soluble”. “MDRQAIEKTAGHLRPLMPTPPEIGLILGSGLGVLADEIEEAVRIPYEDIPGFPVSTVEGHAGRLVYGRLEGATVVAMQGRFHYYEGYSLQEVTFPVRVMKALGVRELIVTNAAGGINERFQPGDFMIISDHINLLGTNPLIGPNDPELGPRFPDMTEAYSRRLRELAKETAARLGVRVHEGVYVANTGPSYETPAEIRMIRTLGGDAVGMSTVPEVIVARHGGIEVLGISCISNMAAGMSDAPLHHDEVVETAERVKTDFLRFVKAIVAEMAKSKRKR”: the “soluble on expression in E. coli” value is listed as “soluble”.

“MDSPIINEQFWDALFFNGTMPWDRSQTPNELKHYLKRIADKTHSVFIPGCGAAYEVSHFVDCGHDVIAMDYSAEAVNLAKSQLGQHQDKVMLGDVFNADFSREFDVIYERAFLAALPREIWGDYFAMIERLLPSNGLLVGYFVISDDYRSRFPPFCLRSGEIEQKLEANFHLIESTPVTDSVDVFKGKEQWMVWQKLEHHHHHH”: the “soluble on expression in E. coli” value was “not soluble”.

“MDSYGYIETMGLLTAIEAADAALKAANVVFTNCYIVKGGIVTVELAGDVAAVTAAVEAGSESARKLGNFISKNVIARVDDETKKILKGDTFISDNNKDGKTEKEISEEELLQNEMEKEEESIEELDALEEIIKADIPTAEGDIPLYDEVIKSPEFSELENDEEAKIITETVKRNDSDGEPYETQEKITVIEEEINTKQTNNNTDYENMKVTDLRGIVKELNSHLTWNQVKAMNKKKLVETLKKNKREK”: the “soluble on expression in E. coli” value is “not soluble”. The same measure for “MDSYTSSDEDASRKENEGLNMLNASPEPMEEDDPEEQAEQEEETSRMARPIRSMRKRETTSGESMGDEDEDLEDEEDEDEEAEAREHHESGAHDTSFSNPLSNVDNLIHVGTEYQAIIQPTAEQLEKEPCRDQQIWAFPDEMNENRLTEYISEATGRYQLPIDRALFILNKQSNDFDAAMVQAMRRKEIHDDWTAEEISLFSTCFFHFGKRFKKIHAAMPQRSLSSIIQYYYNTKKVQNYKTMINVHLNETDTYDELFKEVNHLERVPSGYCENCNAKSDLLILNRVMSRHECKPCILYFRLMRVPRPASLRALTKRRQRVLCPEYMKIYVYGYLELMEPANGKAIKRLGIGKEKEEDDDIMVVDDCLLRKPSGPYIVEQSIEADPIDENTCRMTRCFDTPAALALIDNIKRKHHMCVPLVWRVKQTKCMEENEILNEEARQQMFRATMTYSRVPKGEIANWKKDMMALKGRFERFTPELDTTATNGNRSGKVRINYGWSPEEKKNAIRCFHWYKDNFELIAELMATKTVEQIKKFYMDNEKLILESIDTYRAELKSKLGK”: “not soluble”; for “MDTEDTSGYSSLKSSPQSSDENFFKRLQWGKIRLELKTPEFLKESSELEIEKNEKSGIQKCGENEGENEEKCEFRPVVTPNEIDSHKEWYHRLLMLKLEYKRGERGAFPPFPPPPLPSMMIAASNAVSFNAFDEVKRAAQAKTAKSPSTSSLERRAQRFCPADFQPLPPPHIYIEMIRTLAPHQYIDLTYALAGSVLLEMGVKIPDRYPNLPPKIEPYRDIESEEAAHWTEMSSQSSSEGEYSDASESAKLVQTLNRRKNKERRETRKIRIVASMLTSSTFSMKKKRKNEGLDFKHETFPRDYDYKEKTLSTFIPPRIARRPPIPPPQFFFPPSPHFSREPHSLPPMPMMLPIPLPPMSLSSPISPIHFQKNLQSTPERPSRTDSSRVHAKQIKNDIIIVEKVTDV”: “not soluble”. With “MDTKPPIERSMYIELRTSLEMFRGDLVDLEALANASRDALDQLPFVPKGAKTDHDEAHPNPDPESALRSGRLDSLVCATASAAQSALVTCVKLIDWAYEYEPDDEDDDDDDMVPMDDIDDDDDDDDDDENGGSSGANGGGSNGSGRSGPPDDNGAGAASASVADEFANARPSRGGIVLDLPTRASTTDGPVDAR”, the “soluble on expression in E. coli” value is reported as “not soluble”.

On to “MDTLHQQLCTHSGSTSPKGLYLWGDVGRGKTFLMDLFYDALPQRGKLRLHFHRFMARVHQALKVHAGQRDPLKLIAKNLAKECKVLCFDEFFVSDIGDAMILAGLFETLFAQGVVLVATSNIPIERLYENGLARHRFLPCIALLQAHTQMLHLNGKQDHRLHALSAKPSAEALAATSHNIGLTGTLDFDGIFAALTQNSPSIKDGKLRVCQREISVIRATTENQLPSVAWFDFNALCDGPRSQLDYIEIASRFKVLMLSNVPRLGGEVKGWIRARGTEDGTGDNQAATTGERQLSYAVNDDPARRFISLIDELYDQDVSLYLSCDVPLTELYQGGALSFEFRRTYSRLIEMSHSAAMKLTY”, for which the “soluble on expression in E. coli” value is recorded as “not soluble”. For “MDVAALVSGGVDSSVVVHRLCEEGYKPAIFYIRIGMEDKDGYIDCPAEEDIELTTLIARRYGCPFEVVDLHKEYWERVVSYTVETVRRGLTPNPDMMCNKLIKFGCFEERWGYQFDRIATGHYATTDLLNGKTYLSTAKDPVKDQTDFLAQINFAQISKLMFPIGHLLKSEVRAIANAAGLPSAKRKDSQGICFLGKIDYNDFIERYLGKKEGRIIELETGKVIGRHQGYWFHTIGQRKGLGLSGGPWFVVKKDIKRNIILVSRGYDPDAQYGKTIEMETFDFITEDAYEAGYWNREDATPVTFKIRHTPEFTRGLLYKGEKGYRLESEERIQGIAPGQYCVIYDEDHHLCYGSGMITKGR”, the “soluble on expression in E. coli” value was “not soluble”.

Regarding “MDVKNAFVETAMGVLSEFGFSSVFAEKNETGGLVEAEYVNVVMGVNGAISGNLIMTAKKESALAIASAMLGGMEFTEVDDMVKSAIGELLNIIAGNAFSKVDVKAAVYISTPTLLIGEGISVLLQSPGTNKLVFDMDGQSMDVFLDIE”, the “soluble on expression in E. coli” value is “not soluble”. The result for “MDVMALKREVIEYSRSIGIDKIGFASADPFVELKERLRRQQELGYQSGFEEPDIEKRTNPSLLLPEAKSIIAIALAYPSKMKNAPRGTKTERRGVFCRASWGKDYHDVLRERLQQLEEFLLAKVPHARVRSMVDTGELADRAVAERAGIGWSGKNCSIITPEFGSYVYLGEMITNIPFPPDEPVENRCGTCTKCIDACPTGALVQGGQLNAQRCLSFLTQTKGFLADEFREKIGNRLYGCDTCQQVCPENKGKDFHLHPEFEPDPEAVKPKLIPLLQMSNREFKETFGAMAGSWRGKKPIQRNAILALAHYKDQTAVPHLLRLLKEDSRPVIRGTAAWALGKIGDPSAKSYLEAARPTEADADVIAEIEKGLKLLAEAKE” reads “not soluble”; that for “MDVMNAFDSQAEDSPTSLGRSLRRRPLARKKLSEMVEEELEQMIRRHEFGEGEQLPSERELMAFFNVGRPSVREALAALKRKGLVQINNGERARVSRPSADTIISELSGMAKDFLTHPGGIAHFEQLRLFFESSLVRYAAEHATDEQIALLTKALEINSQSLDDNALFIRSDVEFHRVLAEIPGNPIFMAIHVALLDWLIAARPSVPDRELHEHNNVSYQQHIVIVDAIRQRDPDKADRALQTHLNSVSATWHALGKKSQKMR”, “not soluble”; that for “MDVSFEFEHYQVRLIKSSDAVTIANYFMRNRHHLAPWEPKRSHAFFTPEGWKQRLLQLVELHKHNLAFYFVVVDKNEHKIIGTVSYSNITRFPFHAGHVGYSLDSEYQGKGIMRRAVNVTIDWMFKAQNLHRIMAAYIPRNEKSAKVLAALGFVKEGEAKKYLYINGAWEDHILTSKINDDWKPE”, “not soluble”. Turning to “MDWDDEYSHNSFDLHCLLNSFPGDLEFEQIFSDIDEKIEQNAASIKHCIKEIQSEINKQCPGVQLQTTTDCFEWLTNYNYSTSESSFISHGDLIKFFKTLQDLLKNEQNQEEMTLDLLWDLSCHSSVSFPSTLSGTSFHFLSRTSLHSVEDNSSMDVKSMWDDIRLHLRRFLVSKLQSHNEINNSQQKILLKKQCLQQLLFLYPESEVIIKYQNIQNKLLANLLWNCFPSYNRDSNLDVIAHGYQSTMLKLYSVIKEDFNTLCEILAPSSMVKFIKETYLDTVTEEMAKFLENFCELQFRENAVRVVKTSKSSSKHRGAVHALG”, the “soluble on expression in E. coli” value is “soluble”. Turning to “MDWFGVDAGTLREGDRADFVVIDPNCLNSDVDAYHEETVPFYGGLSRMVNRNDDAVVATAVNGTVVFGKGEFRDGYGLEHHHHHH”, the “soluble on expression in E. coli” value was “not soluble”. Turning to “MDWKITIFTYNLAMKASDSEAVHNMLNGMIDDHTHLVAIGLQEVAHSETIGGAVLTWATTIASWMNTNGRMVLLAKTFQATNQVLIFGRKQLIGQIKRIDYRFQRNTMGGLTGHKGSIGVRLQLASPYSIVFVDSHFIHGPENYGKRVEQYHTNRNCSFPEDKSVRAAFWFGDFNFRVEEDVNTVIRKIKNGTHLELLDTREQLKRALVERDAFIGFHEQPVTFEPTYRVTVGTTEQDGKRVPSWTDRILYKGDGITGLSYTNNKKAVASDHLPVVAMFRVTAPAAPKPQWEVIFEHLPTWYTSIPLVGRFQVNELYYKENGSYRDWIGVFPSSINDCTTATNWIYAATCFEQVIEGSKFLACEFNNIPAGNYRLGYFSCHLHCLVGLSKVFQIVEQP”, the “soluble on expression in E. coli” value is on record as “not soluble”. The same measure for “MDWNHYRFRSRWPLPAPAPDVYRALERIEDYPRWWPQVREVTRLDDTSGLLRFRSLLPYDLTATVREQRRDPTEGVLEVAMSGDMEGWARWTVAPRGSASLVRYDQEVVVRKPLLRRLAVPGRPLFRANHRLMMRAGRRGLAAHLAGGRQAVLEHHHHHH”: “soluble”.
